Like-named read-outs stand apart in the source and are kept apart here.
How the values were obtained:
[1] = biological target: biotinylated cross-linked CA hexamer (CA A14C/E45C/W184A/M185A) (HIV-1); assay: SPR; Biacore S200; biotinylated CA K158C or biotinylated CA hexamer immobilised on streptavidin-modified CM5 chip; CypA injected at 1.1-72.8 uM; 10 mM HEPES pH 8, 0.005% Tween 20, 2 mM EDTA, 150 mM NaCl; equilibrium analysis, single experiments
[2] = biological target: biotinylated CA K158C (unassembled HIV-1 CA) (HIV-1); assay: as above
[3] = biological target: cross-linked self-assembled CA tubes (CA A14C/E45C co-assembled with CA K158C-AF488) (HIV-1); assay: TIRF fluorescence microscopy binding assay; cross-linked CA tubes held on the cover slip by an anti-p24 antibody; CypA 1-50 uM (1 uM AF647-CypA plus unlabelled CypA) flowed in; 50 mM Tris pH 8, 150 mM NaCl; equilibrium binding model on the CypA:CA molar ratio
[4] = biological target: native HIV-1 capsid (wild type CA lattice of authentic viral cores) (HIV-1 (pNL4.3-iGFP-ΔEnv and psPAX2)); assay: TIRF fluorescence microscopy binding assay
[5] = biological target: native HIV-1 capsid (wild type CA lattice of authentic viral cores) (HIV-1 (pNL4.3-iGFP-ΔEnv and psPAX2)); assay: TIRF fluorescence microscopy binding assay; remark: listed apart in the source

Work on CypA K27D (enzyme) yielded a Kd [1] of 21.7 µM, a Kd [2] of 28.5 µM and a Kd [3] of 17.7 µM. For the same substance, the stoichiometry N (molar ratio of CypA:CA when saturated) [3] was 0.24.
CypA K30D (enzyme) was tested, and the Kd [1] was 35.7 µM, the Kd [2] was 37.9 µM and the Kd [3] was 17 µM. For the same substance, the stoichiometry N (molar ratio of CypA:CA when saturated) [3] was 0.39.
For CypA P29K (enzyme), the Kd [1] was 21 µM, the Kd [2] was 20.6 µM and the Kd [3] was 16.4 µM. It also gave a stoichiometry N (molar ratio of CypA:CA when saturated) [3] of 0.32.
In the case of CypA A25D (enzyme), the Kd [1] is reported as 20.8 µM, the Kd [2] is reported as 22.6 µM and the Kd [4] is reported as 11.2 µM. It also gave a stoichiometry N ([4]; scale: CypA loops occupied at saturation per capsid) of 877, a stoichiometry N ([4]; scale: CypA molecules bound per capsid at saturation) of 688 and a Kd [3] of 17.2 µM. For the same substance, the stoichiometry N (molar ratio of CypA:CA when saturated) [3] was 0.39 and the Kd [5] was 8.7 µM.
